The DeepSol protein solubility set

Experiment: soluble on expression in E. coli; label from the status in PepcDB or PDB records

Sequence	soluble on expression in E. coli
MIKATDRKLVVGLEIGTAKVAALVGEVLPDGMVNIIGVGSCPSRGMDKGGVNDLESVVKCVQRAIDQAELMADCQISSVYLALSGKHISCQNEIGMVPISEEEVTQEDVENVVHTAKSVRVRDEHRVLHVIPQEYAIDYQEGIKNPVGLSGVRMQAKVHLITCHNDMAKNIVKAVERCGLKVDQLIFAGLAASYSVLTEDERELGVCVVDIGGGTMDIAVYTGGALRHTKVIPYAGNVVTSDIAYAFGTPPSDAEAIKVRHGCALGSIVGKDESVEVPSVGGRPPRSLQRQTLAEVIEPRYTELLNLVNEEILQLQEQLRQQGVKHHLAAGIVLTGGAAQIEGLAACAQRVFHTQVRIGAPLNITGLTDYAQEPYYSTAVGLLHYGKESHLNGEAEVEKRVTASVGSWIKRLNSWLRKEF	not soluble
MGITALAFDFGTKSIGCAIGQSITGTAQALPAFKAQDGIPNWEAIEKCLKEWKPDVVIVGLPLNMDGTEQDLTLRARKFANRLQGRFGVNVHLQDERLTTTQARSEIFERGGFKALKKGKIDGVSACLILESWFEYAEY	not soluble
MAHHHHHHMSLRLCVCTATANGEYYMSMFNKHLSSFFKTITLGSTVDDFKQDKDSKDSIILYVEGPVGHDAIKYLCDDYHLPKEQRRVLWIYSLTAGVDVYRLGELVKELQDIPFANARGCYSSVLAEHVMYSMLYFYRQTWRSLASRAEHKWDPFLMVELRGKKVGIIGYGDIGQASAKLLSAFGMEVTGVKRSASTKEVDEYGVRLVHGDAERERVLRESDFVVNILPGTEETKRFFNKELFSMMKPSAVYISIGRGITQNEDDLACALRDGVIRGASVDVFEREPLPAESPLWDISDDKLLLTAHSADRTANLVPDSVRRFIGLVNEYAKTKRLDTYLVDPVRGY	not soluble
MLEACTKCGTCAEACTMYLGSGRKKIYSPVYRSDMLRKIYKKHFTLTGKLFGPLIGAKDPTEDDINALAESAYRCTVCRRCALACPFGLDNGLITRETRKIFADLGILEHHHHHH	not soluble
LDLNNPQYNDVYEINYDFIYSLRNIMDYVVRGDEWALDDYYEALDIRNDDLRWVLSDVQYRRFLGAEYFYRPIYVTGGRWNFRIYINYPNRSLFYFGVPYHYRTYCGAHYRPHIHHVSYYRGRYNNLVHYPTPYRVRDQRVFHSYRRSDFGSVRFRPNTSVRPHNAPTRPGTSGRPGTTSR	not soluble
MASEALHQVGDGEEAVLKKENFNMMNALDQLPKPFPNPKSMNRTVTTKGLPLASKGNLVNFLEDDTINLLKPLPVEDSDCSSDETSISAFSSTLLNPIKLAVTQPNSSFFAGMLEGELNKLSFSPMAKNAENEDLALGPCPCPSKSQMATRGLLDLDNPELETETSSTHSESSVVVDLPDTPFIFEHTVNNSTAVISWTYALGKQPVSFYQLLLQEVAKTQENELPEAKNRPWIFNKILGTTVKLMELKPNTCYCLSVRAANTAGVGKWCKPYKFATLATDFSSFPENYPIQITVRRKEPRQKIVSIGPEEMRRLEDLEYLFPC	soluble
MDFLDFEKVFSFYSKATKKGFSPFFVPALEKAEEPAGNFFLDRKGNLFSIREDFTKTVLNHRKRYSPDSQIKVWYADFVYRYSGSDLVAEYQLGLEKVPRNSLDDSLEVLEIIVESASEFFEGPVIVEIGHTGVYEDLLKEIPKDLHEKVLNLIDTKNLAEIEFLSHMKKIDLSRVEKIIEDSIYRRSPEHLKTMDLPLSVREDLLSASSFLQEKFPTVSVEIDLTLARTIEEYCGLIFTIYDTSSSRLVAAGGEYTVNGEKGVGGSIFLEGKTC	soluble
MNVLSPHIALYRLFDVADEIDLGRLSTPRLRLSRARLGAVRFENPPGEMELGVRNVEGLSGLLTARLYEFGVVSLSFRIHLGERVPWEAFLEKGLRIPELPFWEGFFLAELAALEPHLRGALLRPEEKRLSEEFVVYHALGLEGEKAFRPSVDLTPLWMGAEEEFAPEVRREVERYRYSYSTEDLALLGFDRVLILDSEGIWDVADLVEFVHAQLLELSYYDRVLTEELELVPQVLRHRGLWGYGRLQRLRRRLMARHAEIADVKARMEGALRITEDLFYAKIYRAALELYGAYELEKSVEEKLRVLEATYEMVTEEVAHLRTQAVEVAILALIAFEVVRALH	soluble
MHKSNNKIRQRIIIKLSGAGLTKENSQPFSNDFFETIINQLKVLKESYQVGIVIGGGNIIRGNNCQEFNIAEYHGHQLGIIATVVNGYFLKAKLDAHNLKSALLSAISCPSLAVQILSQQTIDKAFEENDFVIFSGGTGNPYFSTDTALALRAVQTKAVAILIGKNGVDGVYTADPKKDKNATFLPTLNYDHAIKNDLKIMDITAFTMCKENNLKIIIFNINAENALLDALNKKGRFTIIENNLEHHHHHH	soluble
MKKVKSIGLIETLGMVGVVEAADAALKAANVTLLGYEFNGAGYMVIKLTGDVAAVKAAVSSGAATAQKLGNLVAAHVIPRPDDQVIDTEICGKDNVPPFNGSDSEPEDGKPSGSSSEKESKESTETAVKASEPKPATATADKEEAPLEKAAPEAKDAKDTKEAPAKQASKPEAKTKSSKPTASEAKNASSPKTPEKQADSGKTAPAKTDGGNKPKSRK	not soluble
MGSDKIHHHHHHMSLKAKLARKFVYAVFPDVRKYTSIKPAFENSPDSPEGRLVPEVVALYGKPGVHILKMALVLPYLVGTAYYARKSVTSVRRNPGKGKKTAPPEFFEELESYAKSLGVLKVGYTKLTPELVFSNRAVLFENAIVLIGEMRKKEIAKAPGVRAGMEVWRTYYRLTRAAYKIAEFLRERGYNAQPDPAVGRSTNFPLLAQKAGLDHIGKHGLLITPENGPSVRIGAVYTDLELPYTDERVREHGWIPHFCDRCNACVRACPAQAIYITPRRENGREVHIDYKRCAVIFSRTLGCSICVKECTFTKGSYEKIKRVHEKIRNR	not soluble
MTRACNLYVFKNKYVSFNLLDSPNSNPKLLKISLPFNFMDEFEGLLKAVGSAPWYKLIGMVPKLQGDRVVVEMEIDRSKHLQALGTTHGGAIASVLDSAIGLNVNREVVKMGKTAVTAQLNIHYIRPVTEGKIVGVGMPMHIGSKVTVGYGEVRNEEGELVAAGTATFYIIDRRFRDLEHHHHHH	not soluble
MAPILSHSIPIPSSMQANWQQMLNLLAEVLKVSATLIMRLRHHDLDVFCTSVGSDNPYQVGMTERLGTGLYCETVVNTRQILLVSNADLDPLWKDNPDLELGMRAYCGVPLQWPNGELFGSLCVTDRQARQFLSTDQQLIKTFAESIEAQLKTLYQRETLLQMNQ	not soluble
QVQLQQSGPELVKPGALVKISCKASGYTFTNYDIHWVKQRPGQGLEWIGWIYPGDGSTKYNEKFKGKATLTADKSSSTAYMHLSSLTSEKSAVYFCAREWAYWGQGTLVTVSAAKTTAPSVYPLAPGCGDTTGSSVTLGCLVKGYFPEPVTLTWNSGSLSSGVHTFPAVLQSDLYTLSSSVTVTSSTWPSQSITCNVAHPASSTKVDKKIEPRGPTIKPC	soluble
LSSLLKAANLARSTYYYQMATGQAEDRHGALKERIQHIYAQHKGRYGYRRITATLRRAGTLVNHKTVQRLMSALQLKSLVRPKKYRSYLGQVGRVAPNLLQREFEASKPNEKWVTDVTEFNVGGKKLYLSPVLDLYNGEIVAWQTSERPDYTLIREMLDKALRKLRPCETPMLHSDQGWPYQMAAYRRKLAARGLRQSMSRKGNCLDNAAMESFFGTLKSECFRLERFADIDQLRRAIAEYIRYYNHERIKIKLKGLSPVQYRTQPLAA	soluble
MFSAKKLSPADKLKNISSMLEEIVEDTTVPRNIRAAADNAKNALHNEEQELIVRSATAIQYLDDISEDPNMPIHTRTQIWGIVSELETIKN	not soluble
MGSDKIHHHHHHSNKPEGVIGPFQLVIETKESYLPNDPLDVRVKVFNREKKKENLVLEDFVFSIKRENDTVYEFHFPQRVEKEMEAFESVLVFDLLREEELSNLPGGNYTITVSVKLNGQRVVISKVVSVIEKWQIEVEDLKDFYFPYENVHFFVYLENISSKSRKIRVESIGLIILKGNEAVFERDIPIEKDFVINPMMVEQIHEVSFSAPKESGDYIIKLKLKTESSLIEKSIPLFVTREYQKDLKGLSLVIEGKKFVASGERYDFSVKLLNEEKKRKYIVLKNIMIVLTHKEPVFSYAYSEEYRMTIEGYSSREIFKTTSYDIIKLEDPGTYKLIVVIESEEDRLMKEMEIVVSE	not soluble
